Assay results as given in patent US20250295737A1 (AstraZeneca / MedImmune, published 2025).

T1: human RXFP1 (human, UniProt Q9HBX9 1-757)
T1 sequence (looked up): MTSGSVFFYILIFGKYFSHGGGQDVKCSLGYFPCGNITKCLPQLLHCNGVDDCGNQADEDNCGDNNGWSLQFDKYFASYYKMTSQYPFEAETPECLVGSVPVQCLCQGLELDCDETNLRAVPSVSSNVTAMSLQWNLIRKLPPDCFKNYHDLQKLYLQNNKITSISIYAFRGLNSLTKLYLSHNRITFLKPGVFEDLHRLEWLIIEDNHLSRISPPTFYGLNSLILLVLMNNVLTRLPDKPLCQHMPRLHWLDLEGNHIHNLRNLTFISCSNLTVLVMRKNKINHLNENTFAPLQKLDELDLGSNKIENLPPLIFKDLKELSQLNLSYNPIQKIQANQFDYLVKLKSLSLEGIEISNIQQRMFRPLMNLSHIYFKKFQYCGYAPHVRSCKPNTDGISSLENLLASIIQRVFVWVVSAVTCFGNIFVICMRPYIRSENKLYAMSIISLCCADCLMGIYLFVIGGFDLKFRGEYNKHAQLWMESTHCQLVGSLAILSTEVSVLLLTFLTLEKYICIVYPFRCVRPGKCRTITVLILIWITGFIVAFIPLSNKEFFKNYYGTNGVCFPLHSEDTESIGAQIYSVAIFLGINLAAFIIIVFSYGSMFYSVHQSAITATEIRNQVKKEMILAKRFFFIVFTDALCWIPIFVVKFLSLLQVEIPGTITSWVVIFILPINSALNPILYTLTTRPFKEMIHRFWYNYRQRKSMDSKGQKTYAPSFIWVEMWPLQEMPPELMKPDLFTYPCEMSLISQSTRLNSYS

T2: mouse RXFP1 (mouse, UniProt Q6R6I7 1-758)
T2 sequence (looked up): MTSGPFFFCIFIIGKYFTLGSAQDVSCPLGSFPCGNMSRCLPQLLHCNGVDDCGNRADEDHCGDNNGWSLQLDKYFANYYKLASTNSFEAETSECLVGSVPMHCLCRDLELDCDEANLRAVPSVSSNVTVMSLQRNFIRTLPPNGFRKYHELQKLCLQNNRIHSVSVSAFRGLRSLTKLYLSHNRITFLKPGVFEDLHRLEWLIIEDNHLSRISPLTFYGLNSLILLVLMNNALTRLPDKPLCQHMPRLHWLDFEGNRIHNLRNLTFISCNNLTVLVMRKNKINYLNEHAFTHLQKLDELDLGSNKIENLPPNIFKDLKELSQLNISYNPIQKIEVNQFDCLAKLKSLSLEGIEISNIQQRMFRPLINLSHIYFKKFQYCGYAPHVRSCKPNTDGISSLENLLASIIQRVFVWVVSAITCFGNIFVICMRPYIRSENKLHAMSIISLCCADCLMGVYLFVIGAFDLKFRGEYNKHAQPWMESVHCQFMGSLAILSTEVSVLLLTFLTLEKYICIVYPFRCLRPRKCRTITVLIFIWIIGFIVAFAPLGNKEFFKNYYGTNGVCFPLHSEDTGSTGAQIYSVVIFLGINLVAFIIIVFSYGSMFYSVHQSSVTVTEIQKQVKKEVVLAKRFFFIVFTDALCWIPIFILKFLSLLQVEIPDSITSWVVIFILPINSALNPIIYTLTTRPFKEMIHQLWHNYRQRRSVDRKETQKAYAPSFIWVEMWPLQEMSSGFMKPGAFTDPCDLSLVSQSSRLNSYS


Assays:
Assay in all cases: cell-based or functional assay
human RXFP1 = target: T1, human RXFP1
mouse RXFP1 = target: T2, mouse RXFP1
human RXFP2 = human RXFP2 (human, UniProt Q8WXD0 1-754)
Sequence of human RXFP2 (Q8WXD0 whole entry): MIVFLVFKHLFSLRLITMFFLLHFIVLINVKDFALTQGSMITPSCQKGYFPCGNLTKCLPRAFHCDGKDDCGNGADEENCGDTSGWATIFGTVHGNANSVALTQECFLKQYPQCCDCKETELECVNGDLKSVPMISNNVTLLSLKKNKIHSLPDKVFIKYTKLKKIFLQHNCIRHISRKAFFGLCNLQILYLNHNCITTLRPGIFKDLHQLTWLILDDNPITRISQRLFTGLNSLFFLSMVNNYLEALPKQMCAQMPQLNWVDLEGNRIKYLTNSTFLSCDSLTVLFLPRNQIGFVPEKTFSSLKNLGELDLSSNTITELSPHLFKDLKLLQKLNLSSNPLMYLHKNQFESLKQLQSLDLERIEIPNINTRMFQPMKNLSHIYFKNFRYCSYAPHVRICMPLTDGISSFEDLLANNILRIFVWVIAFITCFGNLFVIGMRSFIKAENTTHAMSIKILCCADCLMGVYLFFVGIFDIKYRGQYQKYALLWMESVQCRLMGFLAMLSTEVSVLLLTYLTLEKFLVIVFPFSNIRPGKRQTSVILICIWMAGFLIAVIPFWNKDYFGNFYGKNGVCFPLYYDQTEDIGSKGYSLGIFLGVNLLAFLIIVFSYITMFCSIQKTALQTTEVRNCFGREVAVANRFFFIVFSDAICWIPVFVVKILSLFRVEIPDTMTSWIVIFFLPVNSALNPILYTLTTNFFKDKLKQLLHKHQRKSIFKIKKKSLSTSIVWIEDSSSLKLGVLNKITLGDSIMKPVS

| Binder | EC50 hRXFP1 (M), cAMP HTRF assay (human RXFP1) [M] | EC50 mRXFP1 (M), cAMP HTRF assay (mouse RXFP1) [M] | EC50 hRXFP2 (M), cAMP HTRF assay (human RXFP2) [M] |
| --- | --- | --- | --- |
| RELAX0086 (Fc fusion) chain 1: DKTHTCPPCPAPEFEGGPSVFLFPPKPKDTLMISRTPEVTCVVVDVSHEDPEVKFNWYVDGVEVHNAKTKPREEQYNSTYRVVSVLTVLHQDWLNGKEYKCKVSNKALPASIEKTISKAKGQPREPQVYTLPPCREEMTKNQVSLWCLVKGFYPSDIAVEWESNGQPENNYKTTPPVLDSDGSFFLYSKLTVDKSRWQQGNVFSCSVMHEALHNHYTQKSLSLSPGGGGGSGGGGSGGGGGSQLYSALANKCCHVGCTKRSLARFC chain 2: DKTHTCPPCPAPEFEGGPSVFLFPPKPKDTLMISRTPEVTCVVVDVSHEDPEVKFNWYVDGVEVHNAKTKPREEQYNSTYRVVSVLTVLHQDWLNGKEYKCKVSNKALPASIEKTISKAKGQPREPQVCTLPPSREEMTKNQVSLSCAVKGFYPSDIAVEWESNGQPENNYKTTPPVLDSDGSFFLVSKLTVDKSRWQQGNVFSCSVMHEALHNHYTQKSLSLSPGGGGGSGGGGSGGGGSGGGGGSSWMEEVIKLCGRELVRAQIAICGMSTWS | 4.49e-11 | 2.68e-11 | 4.88e-08 |
| RELAX0085 (Fc fusion) chain 1: DKTHTCPPCPAPEFEGGPSVFLFPPKPKDTLMISRTPEVTCVVVDVSHEDPEVKFNWYVDGVEVHNAKTKPREEQYNSTYRVVSVLTVLHQDWLNGKEYKCKVSNKALPASIEKTISKAKGQPREPQVYTLPPCREEMTKNQVSLWCLVKGFYPSDIAVEWESNGQPENNYKTTPPVLDSDGSFFLYSKLTVDKSRWQQGNVFSCSVMHEALHNHYTQKSLSLSPGGGGGSGGGGSGGGGSGGGGGSQLYSALANKCCHVGCTKRSLARFC chain 2: DKTHTCPPCPAPEFEGGPSVFLFPPKPKDTLMISRTPEVTCVVVDVSHEDPEVKFNWYVDGVEVHNAKTKPREEQYNSTYRVVSVLTVLHQDWLNGKEYKCKVSNKALPASIEKTISKAKGQPREPQVCTLPPSREEMTKNQVSLSCAVKGFYPSDIAVEWESNGQPENNYKTTPPVLDSDGSFFLVSKLTVDKSRWQQGNVFSCSVMHEALHNHYTQKSLSLSPGAPAPAPAPAPAPAPAPAPAGSSWMEEVIKLCGRELVRAQIAICGMSTWS | 6.37e-11 | 3.09e-11 | 4.67e-08 |
| RELAX0087 (Fc fusion) chain 1: DKTHTCPPCPAPEFEGGPSVFLFPPKPKDTLMISRTPEVTCVVVDVSHEDPEVKFNWYVDGVEVHNAKTKPREEQYNSTYRVVSVLTVLHQDWLNGKEYKCKVSNKALPASIEKTISKAKGQPREPQVYTLPPCREEMTKNQVSLWCLVKGFYPSDIAVEWESNGQPENNYKTTPPVLDSDGSFFLYSKLTVDKSRWQQGNVFSCSVMHEALHNHYTQKSLSLSPGGGGGSGGGGSGGGGSGGGGGSQLYSALANKCCHVGCTKRSLARFC chain 2: DKTHTCPPCPAPEFEGGPSVFLFPPKPKDTLMISRTPEVTCVVVDVSHEDPEVKFNWYVDGVEVHNAKTKPREEQYNSTYRVVSVLTVLHQDWLNGKEYKCKVSNKALPASIEKTISKAKGQPREPQVCTLPPSREEMTKNQVSLSCAVKGFYPSDIAVEWESNGQPENNYKTTPPVLDSDGSFFLVSKLTVDKSRWQQGNVFSCSVMHEALHNHYTQKSLSLSPGGGGGSGGGGSGGGGGSSWMEEVIKLCGRELVRAQIAICGMSTWS | 4.89e-11 | 3.48e-11 | 3.63e-08 |
| RELAX0105 (Fc fusion) chain 1: DKTHTCPPCPAPEFEGGPSVFLFPPKPKDTLMISRTPEVTCVVVDVSHEDPEVKFNWYVDGVEVHNAKTKPREEQYNSTYRVVSVLTVLHQDWLNGKEYKCKVSNKALPASIEKTISKAKGQPREPQVYTLPPCREEMTKNQVSLWCLVKGFYPSDIAVEWESNGQPENNYKTTPPVLDSDGSFFLYSKLTVDKSRWQQGNVFSCSVMHEALHNHYTQKSLSLSPGGGGGSGGGGSGGGGGSQLYSALANKCCHVGCTKRSLARFC chain 2: DKTHTCPPCPAPEFEGGPSVFLFPPKPKDTLMISRTPEVTCVVVDVSHEDPEVKFNWYVDGVEVHNAKTKPREEQYNSTYRVVSVLTVLHQDWLNGKEYKCKVSNKALPASIEKTISKAKGQPREPQVCTLPPSREEMTKNQVSLSCAVKGFYPSDIAVEWESNGQPENNYKTTPPVLDSDGSFFLVSKLTVDKSRWQQGNVFSCSVMHEALHNHYTQKSLSLSPGAPAPAPAPAPAPAPAPAPAGSSWMEEVIKLCGRELVRAQIAICGMSTWS | 7.12e-11 | 1.49e-11 | 3.33e-08 |

Other lines, results leading:

| EC50 hRXFP1 (M), cAMP HTRF assay (human RXFP1) [M] | EC50 mRXFP1 (M), cAMP HTRF assay (mouse RXFP1) [M] | EC50 hRXFP2 (M), cAMP HTRF assay (human RXFP2) [M] | Binder |
| --- | --- | --- | --- |
| 8.09e-11 | 3.87e-11 | 1.22e-07 | RELAX0107 (Fc fusion) chain 1: DKTHTCPPCPAPEFEGGPSVFLFPPKPKDTLMISRTPEVTCVVVDVSHEDPEVKFNWYVDGVEVHNAKTKPREEQYNSTYRVVSVLTVLHQDWLNGKEYKCKVSNKALPASIEKTISKAKGQPREPQVYTLPPCREEMTKNQVSLWCLVKGFYPSDIAVEWESNGQPENNYKTTPPVLDSDGSFFLYSKLTVDKSRWQQGNVFSCSVMHEALHNHYTQKSLSLSPGGGGGGSQLYSALANKCCHVGCTKRSLARFC chain 2: DKTHTCPPCPAPEFEGGPSVFLFPPKPKDTLMISRTPEVTCVVVDVSHEDPEVKFNWYVDGVEVHNAKTKPREEQYNSTYRVVSVLTVLHQDWLNGKEYKCKVSNKALPASIEKTISKAKGQPREPQVCTLPPSREEMTKNQVSLSCAVKGFYPSDIAVEWESNGQPENNYKTTPPVLDSDGSFFLVSKLTVDKSRWQQGNVFSCSVMHEALHNHYTQKSLSLSPGAPAPAPAPAPAPAPAPAPAGSSWMEEVIKLCGRELVRAQIAICGMSTWS |
| 6.96e-11 | 1.98e-11 | 4.94e-08 | RELAX0106 (Fc fusion) chain 1: DKTHTCPPCPAPEFEGGPSVFLFPPKPKDTLMISRTPEVTCVVVDVSHEDPEVKFNWYVDGVEVHNAKTKPREEQYNSTYRVVSVLTVLHQDWLNGKEYKCKVSNKALPASIEKTISKAKGQPREPQVYTLPPCREEMTKNQVSLWCLVKGFYPSDIAVEWESNGQPENNYKTTPPVLDSDGSFFLYSKLTVDKSRWQQGNVFSCSVMHEALHNHYTQKSLSLSPGGGGGSGGGGGSQLYSALANKCCHVGCTKRSLARFC chain 2: DKTHTCPPCPAPEFEGGPSVFLFPPKPKDTLMISRTPEVTCVVVDVSHEDPEVKFNWYVDGVEVHNAKTKPREEQYNSTYRVVSVLTVLHQDWLNGKEYKCKVSNKALPASIEKTISKAKGQPREPQVCTLPPSREEMTKNQVSLSCAVKGFYPSDIAVEWESNGQPENNYKTTPPVLDSDGSFFLVSKLTVDKSRWQQGNVFSCSVMHEALHNHYTQKSLSLSPGAPAPAPAPAPAPAPAPAPAGSSWMEEVIKLCGRELVRAQIAICGMSTWS |
| 1.88e-09 | 1.11e-09 | > 6.07e-08 | RELAX0110 (Fc fusion) chain 1: DKTHTCPPCPAPEFEGGPSVFLFPPKPKDTLMISRTPEVTCVVVDVSHEDPEVKFNWYVDGVEVHNAKTKPREEQYNSTYRVVSVLTVLHQDWLNGKEYKCKVSNKALPASIEKTISKAKGQPREPQVYTLPPCREEMTKNQVSLWCLVKGFYPSDIAVEWESNGQPENNYKTTPPVLDSDGSFFLYSKLTVDKSRWQQGNVFSCSVMHEALHNHYTQKSLSLSPGGGGGSGGGGGSQLYSALANKCCHVGCTKRSLARFC chain 2: DKTHTCPPCPAPEFEGGPSVFLFPPKPKDTLMISRTPEVTCVVVDVSHEDPEVKFNWYVDGVEVHNAKTKPREEQYNSTYRVVSVLTVLHQDWLNGKEYKCKVSNKALPASIEKTISKAKGQPREPQVYTLPPCREEMTKNQVSLWCLVKGFYPSDIAVEWESNGQPENNYKTTPPVLDSDGSFFLYSKLTVDKSRWQQGNVFSCSVMHEALHNHYTQKSLSLSPGAAPAPAPAPAPAPAGSSWMEEVIKLCGRELVRAQIAICGMSTWS |
